Test results: the supplement of paper PMC9170038

Tested on: MS2 coat protein
Assay: apparent KD of MS2 coat protein; higher = weaker reporter binding
Conditions: Eterna round: R107
Outline: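 Designed RNA switches were transcribed on-chip from Illumina sequencing clusters and titrated with SNAP-549-labelled MS2 coat protein in twofold steps from 0.7 or 1.5 nM up to 3 µM. Each step lasted 0.8–1.5 h at first and 10–20 min by the end, in 100 mM Tris-HCl pH 7.5, 80 mM KCl and 4 mM MgCl2, without or with constant ligand. Apparent KD is the median, for each design, of fits to normalised cluster binding curves.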

[1] = input ligand: theophylline 20 uM
[2] = input ligand: theophylline 2 mM
[3] = input ligand: tryptophan 2.4 mM

| Sequence | apparent KD of MS2 coat protein (input ligand: arginine 13.2 mM) | apparent KD of MS2 coat protein (input ligand: none) | apparent KD of MS2 coat protein [1] | apparent KD of MS2 coat protein [2] | apparent KD of MS2 coat protein [3] |
| --- | --- | --- | --- | --- | --- |
| GCACAUGAGGAUCACCCAUGUACAACUGAAGGAGCGAGACAGAACUCAGGUAGGUCGCAGACUGCACAAUUGCGGACGACAUGGG [Exclusion Arginine A GF21] | 25.8 nM | 34.2 nM | 44.1 nM | 40.9 nM | 30.1 nM |
| GCACCAGGUACGGAUACCAGAGCAAGCCAAAUGAGUGAACUUGAGGAUCACCCAAGUUUGCUCCCUUGGCAGCCGUACCUGGUGC [ETB NP+V+V2 #12 Diff Apt, +-Same Structure] | 7.29 nM | 9.39 nM | 11.4 nM | 29.2 nM | 8.49 nM |
| GCACUACAUGAGGAUCACCCAUGUGCAGAUACCAGAGGUGUAUGCCUCCCUUGGCAGCUGAGUAGGUCUGGAGGGCUAUUGGUUU [Same State Theophylline A GF14] | 17.8 nM | – | 27.8 nM | – | 18.2 nM |
| GCAUCCUAGUCGGCCGCCACUGCAAUUGUAAUACUGCUACAUGAGGAUCACCCAUGUCCAUGUAGCAGGACCGGGACUAGGAUGC [SS Tryp B #16] | 142 nM | – | 728 nM | 1240 nM | – |
| GCAUCCUAGUCGGCCGCCACUGCACGAUCAGUGGCAGAUCGUCAACAUGAGGAUCACCCAUGUAGCAGGACCGGGACUAGGAUGC [(Trp1)-(TM)''-(TM)'-(Ms2)-(Trp2)_Design3] | 18.5 nM | – | 21.9 nM | 20.9 nM | – |
| GCAUUAUUAUUAGAUACCAGUGUCGCAGGCGACAUGAGGAUCACCCAUGUAAAGUUACUCCACCCUUGGCAGCUAGUUCGACUAC [theeternabot_sameState_MS2_Theo_B_21] | 56 nM | – | 124 nM | – | 101 nM |
| GCCAUCGGCGAAAGCCGAUGGUAUACAGAAGGAGCGCACGAAAGUGCAGGUAGGUCGCUGAACAUGAGGAUCACCCAUGUAAUAA [#29 Same State - Arginine A] | 19.6 nM | 20.2 nM | 24.9 nM | 22.9 nM | 19.4 nM |
| GCCCUUGGCAGCGAUACCAGCCAAAAUUAAAAUAAACCUCUACAUGAGGAUCACCCAUGUGGCCCUUGGCAGCGAUACCAGCAAA [#ReversedDoubbleAptamer 1] | 33.7 nM | – | 49.7 nM | – | 43.5 nM |
| GCCGGGCCUUCGGCCGCCACUGAGAGAGUCGUGUGAACAUGAGGAUCACCCAUGUAAUAUAUAUACAGGACCGGGAGGGCCCGGC [4.V] | 12.6 nM | 16.3 nM | 17.8 nM | 14.9 nM | 10.4 nM |
| GCCUCAUGUAGAAGGAGCGUCAGAAGCUACAGACAUGAGGAUCACCCAUGUUAGUUGAUCUGACAGGUAGGUCGCUACAGCAGGA [Arg B SS t7] | 26.7 nM | 37 nM | 44.9 nM | 41.1 nM | 34.9 nM |
| GCGAUACAUGAGGAUCACCCAUGUGCAGAUACCAGAGGUGCAUGCCUCCCUUGGCAGCUGCGACGCUCUGGCAUCUUGUGGGAUG [Same State Theophylline A GF20] | 37.6 nM | – | 86.4 nM | – | 56.9 nM |
| GCGAUGGAGCGAAGGAGCGGCUAAAUGUAACACAUGAGGAUCACCCAUGUUCCAAGAUGUGGCCAGGUAGGUCGCGCUCCAUCGC [SSAB NP+V+V2 #15] | 61.8 nM | 175 nM | 229 nM | 185 nM | 144 nM |
| GCGAUGGAGCGAAGGAGCGGCUGUGACUACAUGAGGAUCACCCAUGUACGAUCGUAAGGUAGCCAGGUAGGUCGCGCUCCAUCGC [SSAB NP+V+V2 #17] | 18.7 nM | 29.3 nM | 41.8 nM | 41.8 nM | 26.2 nM |
| GCGGACAUGAGGAUCACCCAUGUAAAUCCUCGAGGACCGGUACGGCCGCCACUCGAACGAGUGGCACGCGAGUGCGCACUCGCGU [aDa] | 21.8 nM | – | 38.4 nM | 29.7 nM | – |
| GCGGUGGUCGGAAGGAGCGACAUGAGGAUCACCCAUGUCUCCCGUUAUGGGAGUUCCUUAGGUCAGGUAGGUCGCCGACUGCCGC [#1 Exclusion - Arginine B Attempt #21 (Inspired by Omei)] | 105 nM | 195 nM | 234 nM | 260 nM | 227 nM |
| GCGUCGGUCGGAAGGAGCGACAUGAGGAUCACCCAUGUCUCCCGUUAUGGGAGUUCCUUAGGUCAGGUAGGUCGCCGACGGACGC [#1 Exclusion - Arginine B Attempt #19 (Inspired by Omei)] | 63.8 nM | 170 nM | 190 nM | 216 nM | 196 nM |
| GCUACACAGGACCGUACUAAGGAUUCGCCUCGAGGACCGGUACGGCCGCCACUCGUUGCGCGACAUGAGGAUCACCCAUGUGUUC [theeternabot_exclusion_MS2_Trp_A_33] | 31.1 nM | – | 48.3 nM | 50.7 nM | – |
| GCUACAUGAGGAUCACCCAUGUAUGCGAGCCGAGGACCGGUACGGCCGCCACUCGCUUAACAUGAGGAUCACCCAUGUUUCUCGG [SSTA DOUBLE!!! :-D #16] | 69.9 nM | – | 193 nM | 254 nM | – |
| GCUACAUGAGGAUCACCCAUGUAUGCGAGUCGAGGACCGGUACGGCCGCCACUCGCUUAACAUGAGGAUCACCCAUGUUACUCGC [SSTA DOUBLE!!! :-D #19] | 56 nM | – | 106 nM | 88.7 nM | – |
